Reference: patent publication US20240239878A1 (SHANGHAI QILU PHARMACEUTICAL RESEARCH AND DEVELOPMENT CENTRE, published 2024)

T1: Cynomolgus monkey DLL3 on HEK293 cells (HEK293-cyno DLL3) (Cynomolgus monkey, UniProt Q9NYJ7 27-618 (human entry))
T1 chain: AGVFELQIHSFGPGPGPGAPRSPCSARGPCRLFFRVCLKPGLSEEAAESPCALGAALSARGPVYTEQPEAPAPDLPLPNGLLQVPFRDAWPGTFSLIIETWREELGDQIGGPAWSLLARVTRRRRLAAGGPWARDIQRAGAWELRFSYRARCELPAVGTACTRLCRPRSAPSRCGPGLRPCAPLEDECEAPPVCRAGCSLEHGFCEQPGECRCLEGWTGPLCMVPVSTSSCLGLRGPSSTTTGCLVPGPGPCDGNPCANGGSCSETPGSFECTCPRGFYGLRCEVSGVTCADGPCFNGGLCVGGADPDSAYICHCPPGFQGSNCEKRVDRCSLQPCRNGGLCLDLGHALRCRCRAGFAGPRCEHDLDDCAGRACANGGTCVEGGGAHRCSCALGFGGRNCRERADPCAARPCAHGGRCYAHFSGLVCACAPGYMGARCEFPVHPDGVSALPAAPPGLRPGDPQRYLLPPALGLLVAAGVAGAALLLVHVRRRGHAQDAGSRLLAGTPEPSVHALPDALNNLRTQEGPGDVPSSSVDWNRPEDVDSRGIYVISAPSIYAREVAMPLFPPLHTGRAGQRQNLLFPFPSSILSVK

T2: human DLL3 on SHP-77 cells (human, UniProt Q9NYJ7 27-618)
T2 construct: also called DLL3-expressing cells (SHP-77)
T2 sequence: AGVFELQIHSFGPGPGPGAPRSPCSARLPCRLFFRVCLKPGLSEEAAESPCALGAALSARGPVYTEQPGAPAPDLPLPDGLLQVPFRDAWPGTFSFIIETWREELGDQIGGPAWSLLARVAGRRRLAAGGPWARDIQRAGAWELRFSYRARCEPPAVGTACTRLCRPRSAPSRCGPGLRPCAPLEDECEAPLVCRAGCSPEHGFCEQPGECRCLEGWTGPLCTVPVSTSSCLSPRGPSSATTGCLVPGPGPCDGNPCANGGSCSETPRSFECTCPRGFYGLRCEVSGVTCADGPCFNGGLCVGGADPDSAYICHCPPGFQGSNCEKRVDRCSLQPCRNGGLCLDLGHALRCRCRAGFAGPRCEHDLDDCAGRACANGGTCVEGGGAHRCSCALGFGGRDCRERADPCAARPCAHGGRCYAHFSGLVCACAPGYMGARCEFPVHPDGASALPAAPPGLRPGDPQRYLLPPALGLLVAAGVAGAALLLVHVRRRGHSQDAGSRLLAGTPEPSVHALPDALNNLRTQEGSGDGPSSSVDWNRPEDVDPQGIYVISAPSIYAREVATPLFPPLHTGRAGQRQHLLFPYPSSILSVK


Experiments:
[1] = target: T3, human DLL4 (Sino Biological, Cat. No. 10171-H08H) (human, UniProt Q9NR61 27-529); test: ELISA, plate coated with human DLL4 at 1 ug/mL, OD 450nm
T3 construct: also called family protein DLL4
T3 sequence (Q9NR61 27-529 limits assumed): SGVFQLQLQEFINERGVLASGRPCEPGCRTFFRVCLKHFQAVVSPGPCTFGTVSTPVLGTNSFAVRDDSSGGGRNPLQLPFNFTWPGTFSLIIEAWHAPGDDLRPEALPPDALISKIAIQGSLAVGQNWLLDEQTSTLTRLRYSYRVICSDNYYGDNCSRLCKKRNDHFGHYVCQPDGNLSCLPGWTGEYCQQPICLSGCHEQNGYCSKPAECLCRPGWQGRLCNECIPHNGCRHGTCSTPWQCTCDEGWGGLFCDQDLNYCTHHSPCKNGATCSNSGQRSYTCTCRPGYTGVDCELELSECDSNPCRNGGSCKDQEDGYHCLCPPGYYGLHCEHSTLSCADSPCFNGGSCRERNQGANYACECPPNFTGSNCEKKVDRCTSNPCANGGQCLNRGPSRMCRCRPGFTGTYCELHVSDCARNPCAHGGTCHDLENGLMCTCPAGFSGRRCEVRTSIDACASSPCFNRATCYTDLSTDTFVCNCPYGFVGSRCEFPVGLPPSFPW
Method: The antigen was washed three times with PBST, 300 μL/well. The antigen was blocked with 1% BSA (in PBST), 200 μL/well, and incubated at 37° C. for 1.5 hours.
Antibodies to be tested were diluted with 1% BSA (in PBS) at a starting concentration of 100 nM, downwards by a 10-fold gradient for 7 concentrations. The plates were washed three times with PBST, 300 μL/well. The diluted antibody was added to an ELISA plate at 100 μL/well and incubated at room temperature for 2 hours. The antibodies were washed three times with PBST, 300 μL/well. The secondary antibodies (goat anti-human IgG Fc for DLL4 (HRP), 1:20000 dilution: HRP goat anti-mouse IgG (H+L) for DLL1, 1:10000 dilution) were diluted with 1% BSA in PBST. The diluted secondary antibodies were added to the ELISA plate at 100 μL/well and incubated at room temperature for 1 hour. The plates were washed 6 times with PBST, 300 μL/well. The developing solution (TMA and TMB 1:1 mixed) was prepared. The developing solution was added to the plate, 100 μL/well, and incubated in the dark for 5 min. 50 μL of ELISA stop solution was added to the plate and shaken well.
OD450s were read on the envision and plotted on the GraphPad for EC₅₀ values.

[2] = target: T1, Cynomolgus monkey DLL3 on HEK293 cells …; test: flow cytometry, HEK293-cyno DLL3 cells
Method: (§1) Monoclonal selection was performed, and the expression level of DLL3 protein in the monoclonal cells were identified by flow cytometry. The culture was expanded and stored in storage for later use. SHP-77 and HEK293-cyno DLL3 cells were cultured. The culture medium for SHP-77 cells were RPMI1640+10% FBS, and the culture medium for HEK293 cyno DLL3 cells were DMEM+10% FBS+200 μg/ml Hygromycin. The cells were cultured in a T75 cell culture flask at a 37° ° C. in a 5% CO₂ incubator. When using cells, they are washed with sterile DPBS, digested with 0.25% trypsin EDTA for about 5 minutes, and then stopped with a complete medium.
(§2) The digested cells were centrifuged at 1000 rpm for 5 min at room temperature. The supernatant was discarded and the cells were resuspended in 100 μL of 1% BSA (in PBS). The cells were counted and adjusted to a cell density of 1E6/m. The dilute cells were seeded in a 96-well round-bottom culture plate (corning 3799), and centrifuged at 1500 rpm for 5 min at 4° C. The supernatant was discarded and the cells were stored at 4° C. until use. Antibody samples to be tested were diluted with 1% BSA (in PBS) at a starting concentration of 100 nM, downwards by a 10-fold gradient for 7 concentrations. The cells were resuspended with the diluted antibody at 100 μL/well and incubated for 1 hour at 4° C. The cells were centrifuged at 1500 rpm for 5 minutes at 4° C. and the supernatant was discarded. The cells were resuspended and washed with 160 μL of 1% BSA (in PBS), centrifuged at 1500 rpm for 5 minutes at 4° C. The supernatant was discarded. The secondary antibody (goat anti human IgG Fc PE) was diluted 1:200 with 1% BSA (in PBS) according to the manufacturer's instructions and the cells were resuspended with the diluted secondary antibody. 100 μL/well, and incubated for 0.5 h at 4° C. The cells were centrifuged at 1500 rpm for 5 minutes at 4° C. and the supernatant was discarded. The cells were resuspended and washed with 160 μL of 1% BSA (in PBS), centrifuged at 1500 rpm for 5 minutes at 4° C. The supernatant was discarded. The cells were resuspended in 100 μL of 1% BSA (in PBS), and filtered across a 300 mesh gauze. The mean fluorescence intensity of the PE channels was measured by flow cytometry.

[3] = target: T2, human DLL3 on SHP-77 cells; test: flow cytometry, SHP-77 cells
Method: as §1, §2

binding result [1]	EC50 [2]	Top MFI [2]	EC50 [3]	Top MFI [3]	Binder
no binding (tested: 100 nM)	–	–	–	–	hDLL3-3-1 camelid-derived humanized anti-DLL3 antibody (antibody, human IgG1, V domains shown) VH: EVQLVESGGGLVQPGGSLRLSCAASTYTISSGYMGWFRQAPGKEREGVAAIYIGGSTTLYADSVKGRFTISRDNSKNTLYLQMNSLRAEDTAVYYCAAQLRPNSAYHPLDGRKYNYWGQGTLVTVSS
no binding (tested: 100 nM)	–	–	–	–	hDLL3-3-2 camelid-derived humanized anti-DLL3 antibody (antibody, V domains shown) VH: EVQLVESGGGLVQPGGSLRLSCKSPTYTISSGYMGWFRQAPGKEREGVAAIYIGGSTTLYADSVKGRFTISRDNSKNTLYLQMNSLRAEDTAVYYCAAQLRPNSAYHPLDGRKYNYWGQGTLVTVSS
–	415 pM	460 MFI	427 pM	846 MFI	DLL3-122 camelid-derived anti-DLL3 chimeric antibody (antibody, human IgG1, V domains shown) VH: QVQLVESGGGSVQAGGSLRLSCTASGDTYRSYCMGWFRKAPGKEREGVADIVSDGSTSYADSVKGRFTISKDNAKNTLYLQMNSLKPEDTAMYYCAVDRGGSGGYCYTGRYDYWGQGTQVTVSS
no binding (tested: 100 nM)	–	–	–	–	hDLL3-122 camelid-derived humanized anti-DLL3 antibody (antibody, V domains shown) VH: EVQLVESGGGLVQPGGSLRLSCAASGDTYRSYCMGWFRQAPGKEREGVADIVSDGSTSYADSVKGRFTISRDNSKNTLYLQMNSLRAEDTAVYYCAVDRGGSGGYCYTGRYDYWGQGTLVTVSS
–	439 pM	450 MFI	519 pM	821 MFI	DLL3-26 camelid-derived anti-DLL3 chimeric antibody (antibody, human IgG1, V domains shown) VH: QVQLVESGGGSVQAGGSLRLSCAASGDIYSSSYVGWFRQAPGKEREGVAIIYTSGDSTYYANSVKGRFTISQDKAKKTLYLQMNSLKPEDTAMYYCAARFAIDNSNYWGQGTQVTVSS
no binding (tested: 100 nM)	–	–	–	–	hDLL3-26 camelid-derived humanized anti-DLL3 antibody (antibody, V domains shown) VH: EVQLVESGGGLVQPGGSLRLSCAASGDIYSSSYVGWFRQAPGKEREGVAIIYTSGDSTYYADSVKGRFTISRDNSKNTLYLQMNSLRAEDTAVYYCAARFAIDNSNYWGQGTLVTVSS
–	25 pM	438 MFI	47 pM	874 MFI	DLL3-3 camelid-derived anti-DLL3 chimeric antibody (antibody, human IgG1, V domains shown) VH: DVQLVESGGGSVQAGGSLKLSCKSPTYTISSGYMGWFRQAPGKEREGVAAIYIGGSTTLYADSVKGRFTISADNAEKTVYLQMNTLKPEDSAMYYCAAQLRPNSAYHPLDGRKYNYWGQGTQVTVSS
